Assay results: US20230132049A1 (Genmab, published 2023)
Numbering of substitutions follows the chain as printed.

T1: human CD30 (human, UniProt P28908 19-595)
T1 sequence: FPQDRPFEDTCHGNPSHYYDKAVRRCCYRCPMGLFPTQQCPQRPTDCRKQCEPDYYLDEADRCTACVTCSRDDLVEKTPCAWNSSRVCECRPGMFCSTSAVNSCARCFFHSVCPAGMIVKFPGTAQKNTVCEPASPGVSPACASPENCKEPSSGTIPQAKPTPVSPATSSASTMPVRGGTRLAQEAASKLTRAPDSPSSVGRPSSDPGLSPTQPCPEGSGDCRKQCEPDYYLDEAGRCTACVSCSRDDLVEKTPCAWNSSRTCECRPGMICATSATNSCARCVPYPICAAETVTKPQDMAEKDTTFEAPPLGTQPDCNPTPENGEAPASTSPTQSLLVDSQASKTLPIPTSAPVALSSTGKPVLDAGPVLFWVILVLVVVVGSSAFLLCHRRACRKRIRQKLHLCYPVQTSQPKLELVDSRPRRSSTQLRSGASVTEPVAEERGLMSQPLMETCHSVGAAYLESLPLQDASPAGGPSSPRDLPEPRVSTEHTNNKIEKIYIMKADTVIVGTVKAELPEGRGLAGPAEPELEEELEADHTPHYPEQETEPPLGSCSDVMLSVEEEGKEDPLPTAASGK

T2: rhesus monkey (Macaca mulatta) CD30 (rhesus monkey, UniProt P28908 19-595 (human entry))
T2 construct: Full-length construct expressed in Expi293F cells; also called mmCD30
T2 chain: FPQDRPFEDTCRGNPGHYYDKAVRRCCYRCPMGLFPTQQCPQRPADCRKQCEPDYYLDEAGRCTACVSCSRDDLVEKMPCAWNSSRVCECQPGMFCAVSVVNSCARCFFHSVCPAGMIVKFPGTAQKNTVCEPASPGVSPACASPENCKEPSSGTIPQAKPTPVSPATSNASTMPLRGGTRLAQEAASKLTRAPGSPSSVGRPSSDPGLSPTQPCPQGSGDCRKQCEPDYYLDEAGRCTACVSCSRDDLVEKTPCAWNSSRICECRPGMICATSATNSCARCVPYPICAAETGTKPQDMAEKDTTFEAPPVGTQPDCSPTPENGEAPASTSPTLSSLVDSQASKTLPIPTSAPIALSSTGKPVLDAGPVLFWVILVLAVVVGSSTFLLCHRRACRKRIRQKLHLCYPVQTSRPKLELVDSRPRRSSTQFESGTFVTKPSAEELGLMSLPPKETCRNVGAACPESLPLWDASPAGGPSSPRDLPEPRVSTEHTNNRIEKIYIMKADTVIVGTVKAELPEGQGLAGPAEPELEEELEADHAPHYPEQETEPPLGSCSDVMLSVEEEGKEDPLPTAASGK

B1: bsG1-huCD3-FEAL×CD30-HRS-3-FEAR (bispecific antibody, human IgG1, kappa, lambda)
heavy 1: not shown
light 1: not shown
heavy 2: QVQLQQSGAELARPGASVKMSCKASGYTFTTYTIHWVRQRPGHDLEWIGYINPSSGYSDYNQNFKGKTTLTADKSSNTAYMQLNSLTSEDSAVYYCARRADYGNYEYTWFAYWGQGTTVTVSSASTKGPSVFPLAPSSKSTSGGTAALGCLVKDYFPEPVTVSWNSGALTSGVHTFPAVLQSSGLYSLSSVVTVPSSSLGTQTYICNVNHKPSNTKVDKRVEPKSCDKTHTCPPCPAPEFEGGPSVFLFPPKPKDTLMISRTPEVTCVVVAVSHEDPEVKFNWYVDGVEVHNAKTKPREEQYNSTYRVVSVLTVLHQDWLNGKEYKCKVSNKALPAPIEKTISKAKGQPREPQVYTLPPSREEMTKNQVSLTCLVKGFYPSDIAVEWESNGQPENNYKTTPPVLDSDGSFFLYSRLTVDKSRWQQGNVFSCSVMHEALHNHYTQKSLSLSPG
light 2: DIVMTQSPKFMSTSVGDRVTVTCKASQNVGTNVAWFQQKPGQSPKVLIYSASYRYSGVPDRFTGSGSGTDFTLTISNVQSEDLAEYFCQQYHTYPLTFGGGTKLEINRTVAAPSVFIFPPSDEQLKSGTASVVCLLNNFYPREAKVQWKVDNALQSGNSQESVTEQDSKDSTYSLSSTLTLSKADYEKHKVYACEVTHQGLSSPVTKSFNRGEC
B2: bsG1-huCD3-FEAL×CD30-T105-FEAR (bispecific antibody, human IgG1, kappa, lambda)
heavy 1: not shown
light 1: not shown
heavy 2: not shown
light 2: B1 light 2 with P8Q, T20S, G30N, F36Y, K45E, V46A, H92N, T93S, G100S, N107K
notes: Bispecific IgG1 by Fab-arm exchange of the two parental antibodies; also called bsIgG1-huCD3-FEAL×CD30-T105-FEAR
B3: bsG1-huCD3-FEAL×CD30-T215-FEAR (bispecific antibody, human IgG1, kappa, lambda)
heavy 1: not shown
light 1: not shown
heavy 2: not shown
light 2: DIVMTQSQKFMSTSVGDRVSVTCKASQNVFTNVAWYQQKLGQSPKPLIYSASYRYSGVPDRFTGSGSGTDFTLTISDVQSEDLAEYFCQQYNSYPVTFGAGTKLELKRTVAAPSVFIFPPSDEQLKSGTASVVCLLNNFYPREAKVQWKVDNALQSGNSQESVTEQDSKDSTYSLSSTLTLSKADYEKHKVYACEVTHQGLSSPVTKSFNRGEC
notes: Bispecific IgG1 by Fab-arm exchange of the two parental antibodies; also called bsIgG1-huCD3-FEAL×CD30-T215-FEAR
B4: bsG1-huCD3-FEAL×CD30-MDX060-FEAR (bispecific antibody, human IgG1, kappa, lambda)
heavy 1: not shown
light 1: not shown
heavy 2: QVQLQQWGAGLLKPSETLSLTCAVYGGSFSAYYWSWIRQPPGKGLEWIGDINHGGGTNYNPSLKSRVTISVDTSKNQFSLKLNSVTAADTAVYYCASLTAYWGQGSLVTVSSASTKGPSVFPLAPSSKSTSGGTAALGCLVKDYFPEPVTVSWNSGALTSGVHTFPAVLQSSGLYSLSSVVTVPSSSLGTQTYICNVNHKPSNTKVDKRVEPKSCDKTHTCPPCPAPEFEGGPSVFLFPPKPKDTLMISRTPEVTCVVVAVSHEDPEVKFNWYVDGVEVHNAKTKPREEQYNSTYRVVSVLTVLHQDWLNGKEYKCKVSNKALPAPIEKTISKAKGQPREPQVYTLPPSREEMTKNQVSLTCLVKGFYPSDIAVEWESNGQPENNYKTTPPVLDSDGSFFLYSRLTVDKSRWQQGNVFSCSVMHEALHNHYTQKSLSLSPG
light 2: DIQMTQSPTSLSASVGDRVTITCRASQGISSWLTWYQQKPEKAPKSLIYAASSLQSGVPSRFSGSGSGTDFTLTISSLQPEDFATYYCQQYDSYPITFGQGTRLEIKRTVAAPSVFIFPPSDEQLKSGTASVVCLLNNFYPREAKVQWKVDNALQSGNSQESVTEQDSKDSTYSLSSTLTLSKADYEKHKVYACEVTHQGLSSPVTKSFNRGEC
notes: also called bsG1-huCD3xCD30-MDX060
B5: bsG1-huCD3-FEAL×CD30-T408-FEAR (bispecific antibody, human IgG1, kappa, lambda)
heavy 1: not shown
light 1: not shown
heavy 2: QVQLQQPGAELVRPGASVKLSCKASGYTFTSYWINWVKQRPGQGLEWIGNIYPSDSYSNYNQKFKDKATLTVDKSSSTAYMQLSSPTSEDSAVYYCTLGSYWGQGTLVTVSAASTKGPSVFPLAPSSKSTSGGTAALGCLVKDYFPEPVTVSWNSGALTSGVHTFPAVLQSSGLYSLSSVVTVPSSSLGTQTYICNVNHKPSNTKVDKRVEPKSCDKTHTCPPCPAPEFEGGPSVFLFPPKPKDTLMISRTPEVTCVVVAVSHEDPEVKFNWYVDGVEVHNAKTKPREEQYNSTYRVVSVLTVLHQDWLNGKEYKCKVSNKALPAPIEKTISKAKGQPREPQVYTLPPSREEMTKNQVSLTCLVKGFYPSDIAVEWESNGQPENNYKTTPPVLDSDGSFFLYSRLTVDKSRWQQGNVFSCSVMHEALHNHYTQKSLSLSPG
light 2: DVVMTQTPLTLSVTIGQPASISCKSSQSLSDSDGKTYLNWLLQRPGQSPKRLIYLVSKLDSGVPDRFTGSGSGTDFTLKISRVEAEDLGVYYCWQGAHFPRTFGGGTKLEIKRTVAAPSVFIFPPSDEQLKSGTASVVCLLNNFYPREAKVQWKVDNALQSGNSQESVTEQDSKDSTYSLSSTLTLSKADYEKHKVYACEVTHQGLSSPVTKSFNRGEC
notes: Bispecific IgG1 by Fab-arm exchange of the two parental antibodies; also called bsIgG1-huCD3-FEAL×CD30-T408-FEAR; BisIgG1-huCD3-FEAL×CD30-T408-FEAR
B6: bsG1-huCD3-FEAL×CD30-hAC10-FEAR (bispecific antibody, human IgG1, kappa, lambda)
heavy 1: not shown
light 1: not shown
heavy 2: QVQLVQSGAEVKKPGASVKVSCKASGYTFTDYYITWVRQAPGQGLEWMGWIYPGSGNTKYNEKFKGRVTMTRDTSISTAYMELSRLRSDDTAVYYCANYGNYWFAYWGQGTLVTVSSASTKGPSVFPLAPSSKSTSGGTAALGCLVKDYFPEPVTVSWNSGALTSGVHTFPAVLQSSGLYSLSSVVTVPSSSLGTQTYICNVNHKPSNTKVDKRVEPKSCDKTHTCPPCPAPEFEGGPSVFLFPPKPKDTLMISRTPEVTCVVVAVSHEDPEVKFNWYVDGVEVHNAKTKPREEQYNSTYRVVSVLTVLHQDWLNGKEYKCKVSNKALPAPIEKTISKAKGQPREPQVYTLPPSREEMTKNQVSLTCLVKGFYPSDIAVEWESNGQPENNYKTTPPVLDSDGSFFLYSRLTVDKSRWQQGNVFSCSVMHEALHNHYTQKSLSLSPG
light 2: not shown
notes: Bispecific IgG1 by Fab-arm exchange of the two parental antibodies
B7: IgG1-CD30-T215-FEAR (antibody, V domains shown)
VH: QVTLKESGPGILQPSQTLSLTCSFSGFSLSVSGMGVSWIRQPSGKGLEWLAHIHWDDDRRSNPSLRSRLTISKDTSNNQVFLKITSVDTADTATYYCARRPDLYGNYFFFDFWGQGTTLTVSS
VL: DIVMTQSQKFMSTSVGDRVSVTCKASQNVFTNVAWYQQKLGQSPKPLIYSASYRYSGVPDRFTGSGSGTDFTLTISDVQSEDLAEYFCQQYNSYPVTFGAGTKLELKR
notes: Monospecific, bivalent parental antibody
B8: IgG1-CD30-T408-FEAR (antibody, V domains shown)
VH: QVQLQQPGAELVRPGASVKLSCKASGYTFTSYWINWVKQRPGQGLEWIGNIYPSDSYSNYNQKFKDKATLTVDKSSSTAYMQLSSPTSEDSAVYYCTLGSYWGQGTLVTVSA
VL: not shown
notes: as for B7

target: T1, human CD30; test: cell-based or functional assay

First: B1
Second: B2
The “cytotoxicity IC50 (µg/mL) average, Karpas-299 cells” value (“cytotoxicity IC50 (µg/mL) average” for short) of the first is 1.6-fold higher: 0.068 µg/mL for the first, 0.042 µg/mL for the second.

Going from B3 to B4, the “cytotoxicity IC50 (µg/mL) average” value falls from 0.077 µg/mL to 0.033 µg/mL (2.3-fold).

Compared with B5, B6 is 7.1-fold lower in “cytotoxicity IC50 (µg/mL) average” value: 0.226 µg/mL for the first, 0.032 µg/mL for the second.

Going from B1 to B2, the “cytotoxicity maximum lysis (%) average, Karpas-299 cells” value (from here on “cytotoxicity maximum lysis (%) average”) rises from 47.5% to 52.6%.

Going from B3 to B4, the “cytotoxicity maximum lysis (%) average” value rises from 42.8% to 53.7%.

First: B5
Second: B6
The “cytotoxicity maximum lysis (%) average” value of the first is higher: 41.3% for the first, 37.8% for the second.

target: T1, human CD30; test: flow cytometry on Expi293F cells transfected with human CD30
Description: (§1) Cells (3×10⁴ cells/well) were incubated in polystyrene 96-well round-bottom plates (Thermo Scientific, cat. no. 163320) with serial dilutions of antibodies (ranging from 0.0002 to 50 μg/mL in 4-fold dilution steps) in 50 μL staining buffer at 4° C. for 30 min. Experiments were performed in technical duplicate. After washing twice in staining buffer, cells were incubated in 50 μL secondary antibody at 4° C. for 30 min. […] Cells were washed twice in staining buffer, resuspended in 30 μL staining buffer containing 0.4% EDTA and the ToPro-3 viability marker (Invitrogen, cat. no. T3605) diluted 1:10,000. Cells were analyzed on an iQue Screener (Intellicyt Corporation, USA). Binding curves were analyzed using non-linear regression (sigmoidal dose-response with variable slope) using GraphPad Prism V9.0.0 software (GraphPad Software, San Diego, Calif., USA).

First: B2
Second: B4
The “EC50 (read off the curve)” value of the first is 2-fold higher: about 0.2 µg/mL for the first, about 0.1 µg/mL for the second.

For B6, the “EC50 (read off the curve)” value was about 0.06 µg/mL.

Target: T2, rhesus monkey (Macaca mulatta) CD30
Test: flow cytometry on Expi293F cells transfected with rhesus monkey CD30
Description: as §1

B7: binds.
B3: binds.
B5: binds.

target: T1, human CD30; test: flow cytometry on SU-DHL-1 cells
Description: Binding of CD3×CD30 bispecific antibodies to two CD30-expressing human tumor cell lines SU-DHL-1 (ALCL; ATCC, cat. no. ACC 356) and HDLM-2 (HL; ATCC, cat. no. CRL-2965) was analyzed by flow cytometry.
Cells (3×10⁴ cells/well) were incubated in polystyrene 96-well round-bottom plates (Greiner bio-one, cat. no. 650180) with serial dilutions of antibodies (range 0.0046 to 10 μg/mL in 3-fold dilution steps) in 50 μL staining buffer at 4° C. for 30 min. After washing twice in staining buffer, cells were incubated with 50 μL secondary antibody at 4° C. for 30 min. […] Next, cells were washed twice in staining buffer, resuspended in 100 μL staining buffer supplemented with TO-PRO-3 iodide (Thermo Fisher Scientific; cat. no. T3605; 1:8000 dilution) and analyzed on a FACSCelesta flow cytometer (BD Biosciences, USA). Live cells were gated based on FSC/SSC and absence of TOPRO-3 staining. Binding curves were analyzed by non-linear regression of log-transformed data (sigmoidal dose-response with variable slope, four parameters) using GraphPad Prism V7.02 software (GraphPad Software, San Diego, Calif., USA).

In the case of B8, the “EC50 (read off the curve)” value is reported as about 0.7 µg/mL.

Target: T2, rhesus monkey (Macaca mulatta) CD30
Test: flow cytometry on Expi293F cells transfected with rhesus monkey CD30
Remark: another data set of the same source

B6: binds.
